Results reported in patent US20230310601A1 (UNIVERSITY OF SOUTHERN CALIFORNIA, published 2023).

Biological target: T1, recombinant human PD-1-Fc (GenScript) (human, UniProt Q15116 25-167, limits assumed)
T1 construct: Bought reagent (GenScript); not shown: Fc part of the bought fusion
Experiment: sandwich ELISA; PD-1-Fc coated (200 ng/mL), purified trap protein 0-40 µg/mL, anti-His-tag-HRP detection
Method: FIG. 2A-2E depict characterization of trap protein. […] (2D and 2E) Binding ability of trap to PD-1 and TGF-β using sandwich ELISA, wherein purified trap protein was added to PD-1-Fc-coated or TGF-β-coated plates, followed by detection by anti-His-tag antibody conjugated with HRP.
The binding ability of trap protein to PD-1 and TGFβ protein was evaluated by sandwich ELISA, wherein recombinant human PD-1-Fc (GenScript) or […] protein (R&D Systems) (200 ng/mL) was coated on the plates, followed by purified trap protein (0-40 μg/mL) detected by anti-6×HIS TAG® antibody-HRP (1:500 diluted, Abcam).

T1 sequence (Q15116 25-167 limits assumed): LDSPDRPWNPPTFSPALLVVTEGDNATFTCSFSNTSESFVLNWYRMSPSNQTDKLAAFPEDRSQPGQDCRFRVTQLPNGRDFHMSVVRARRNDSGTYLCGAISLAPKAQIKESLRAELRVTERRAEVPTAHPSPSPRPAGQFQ

binding result: binds
B1: trap protein labeled with a His-tag (anti-PD-1 scFv fused to a TGF-β-binding sequence of TGF-βRII, produced in transfected 293T cells) (other, not shown: small tags and cut ends)
chain: DIVLTQSPATLSLSPGERATLSCRASKSVSTSGFNYMHWYQQKPGQAPRLLIFLASNLASGVPARFSGSGSGTDFTLTISSLEPEDFAVYYCQHGRELPLTFGQGTKLEIGGGGSGGGGSGGGGSQVQLVQSGAEVKKPGASVKVSCKASGYTFTNYYMYWVRQAPGQGLEWIGGINPSNGGTNFNEKFKNKATMTVDKSTSTAYMELSSLRSEDTAVYYCTRRDYNYDGGFDYWGQGTLVTVSSGGGGSGGGGSTIPPHVQKSVNNDMIVTDNNGAVKFPQLCKFCDVRFSTCDNQKSCMSNCSITSICEKPQEVCVAVWRKNDENITLETVCHDPKLPYHDFILEDAASPKCIMKEKKKPGETFFMCSCSSDECNDNIIFSEEYNTSNPD
notes: Western blot gives 56 kDa; The text says the scFv derives from antibody 5C4; also called bifunctional trap protein; purified trap protein
